Test [1] has as its target PRPF40A N-ext-WW12 (N-terminally extended WW tandem, residues 56-236) (human) (UniProt O75400). Description: ITC; PRPF40A construct (WW12, N-ext-WW12 or its mutant) in the cell, GB1-SF1 or GB1-SF3A1 construct in the syringe (as shown in Supplementary Figures 16 and 21); 25 °C, 20 mM sodium phosphate pH 6.5, 100 mM NaCl; one-site binding model; at least duplicates; affinities apparent. A general note: In ITC the heat of successive injections is recorded.

The target in test [2] is PRPF40A N-ext-WW12 mutant (residues 56-236, PPVP/PALPP motifs changed to alanines) (human) (UniProt O75400). The description is as above.
Test [3] addresses GB1-SF1(596-611) 16-mer peptide. Put plainly: ITC; MicroCal PEAQ-ITC, 25 °C, 20 mM sodium phosphate pH 6.5, 100 mM NaCl; PRPF40A constructs and GB1-tagged SF1 16-mer peptides; who was in the syringe is not stated for these panels (Fig. 2B, Fig. 5C); one-site model.
The target of test [4] is GB1-SF1 16-mer peptide 425-440. Put plainly: ITC; GB1-peptide or GB1-SF1 construct in the cell, PRPF40A WW12 in the syringe (as shown in Supplementary Figures 7 and 16A); 25 °C, 20 mM sodium phosphate pH 6.5, 100 mM NaCl; one-site binding model; at least duplicates; affinities apparent.
Test [5] has as its target GB1-SF1 16-mer peptide 470-485. The test is described as above.
The target in test [6] is GB1-SF1 16-mer peptide 478-493. The test is described as above.
Test [7] addresses GB1-SF1 16-mer peptide 575-590 (SF1 PRPF40A WW binding site, GB1-tagged). Described as above.
Test [8] deals with GB1-SF1 16-mer peptide 596-611. The description is as above.
Test [9] addresses GB1-SF1 16-mer peptide 623-638. Described as above.

The text below walks through data of paper PMC11079029, “Intramolecular autoinhibition regulates the selectivity of PRPF40A tandem WW domains for proline-rich motifs” (Nature Communications, 2024).

What is called stoichiometry N is the number of molecules, sites or subunits per partner or assembly. On to “GB1-SF1 16-mer peptide 575-590 (SF1 PRPF40A WW binding site, GB1-tagged)”, for which the results for the Kd in [1] and in [2] were 8.71 µM and 2.21 µM, respectively. Moreover, the stoichiometry N was found to be 0.88 sites in test [1] and 0.84 sites in test [2].

Consider “PRPF40A WW12 (tandem WW domains, residues 141-236) (from UniProt O75400 141-236) (domain or fragment)”, for which the Kd is 65.9 µM in test [3]; 20.2 µM in test [4]; 13.9 µM in test [5]; 9.59 µM in test [6]; 1.4 µM in test [7]; 65.9 µM in test [8]. Further, the Kd in test [9] turned out to be 23.3 µM. The stoichiometry N in test [4] was determined as 0.87 sites; in [5] it was 0.9 sites; in [6], 0.8 sites; in [7] it was 1 sites; in test [8] it was 1.1 sites; in test [9] it was 0.95 sites.
